The DeepSol protein solubility set

assay: soluble on expression in E. coli; label from the status in PepcDB or PDB records

Row | Sequence | soluble on expression in E. coli
1 | MGSDKIHHHHHHMATMMMNDMAARGLRVGLLTWDPEDATAHYPMDPAITWMKLAMGEASQRAGWGLRLRRQRAIRRLARGFRPDVVIGFQAGAFIALRTALVGLGIPMIAAERNAPDLYDFLRQGVRARRMTELALATASRITVQLPSYRPRYPAFLRRRIVDIPNPVPALAEPPYPNEAADPPRLILNMGRLSYQKNQAFLLRAFARVAPTHPEWTLAFVGDGDAGATLKALCHELDLDDRVLFPGATRDVGAWYARSAFLAFPSLWEGFPNALVEAFAHGLPAVGLRTTSGVNELIVEGETGLLSAPDEGAFAEALARMIRDDEARREMGRKAARSILAYDPKAIFDRWEALFRAVAKRRSAP | not soluble
2 | MTEEFNESMINDIKEGDKVTGEVQQVEDKQVVVHINGGKFNGIIPISQLSTHHIDSPSEVVKEGDEVEAYVTKVEFDEENETGAYILSRRQLETEKSYSYLQEKLDNNEIIEAKVTEVVKGGLVVDVGQRGFVPASLISTDFIEDFSVFDGQTIRIKVEELDPENNRVILSRKAVEQEENDAKKDQLLQSLNEGDVIHGKVARLTQFGAFIDIGGVDGLVHVSELSHEHVQTPEEVVSIGQDVKVKIKSIDRDTERISLSIKDTLPTPFENIKGQFHENDVIEGVVVRLANFGAFVEIAPGVQGLVHISEIAHKHIGTPGEVLEPGQQVNVKILGIDEENERVSLSIKATLPNEDVVESDPSTTKAYLENEEEDNPTIGDMIGDKLKNLKLLEHHHHHH | soluble
3 | MGSDKIHHHHHHMNLPLNVAPVAAAPASPIVELRQYTLNPGQRETLIALFDREFIESQEATGMTIIGQFRDLDRPDMFVWLRGFDGMDTRKEALAAFYDGPVWAAHRDAANATMTDSDDVLLLKPAWPSAGFDLSGLQRPVSAEQENSSNENHLGGIVVIRIHHLRSGAETEFASRFAAEAALIMKAHGVRLLAAFASEHAQNSFPRLPVRASENVFLSIARFDSAEAHASQEAALAAAPAWQSFLRAVQLDLTKPTETLRLSPTSRSLVGARFRMPR | not soluble
4 | MGSRDDEYDYLFKVVLIGDSGVGKSNLLSRFTRNEFNLESKSTIGVEFATRSISVEGKTVKAQIWDTAGQERYRAITSAYYRGAVGALLVYDIAKHVTYENVERWLKELRDHADQNIVIMLVGNKSDLRHLRAVPTDEAKIYAERNQLSFIETSALDSTNVEAAFTNILTEIYKSVSNKHVGTDRQGYGGGSGTIIPSPASDPPKKQCCIP | not soluble
5 | GSHMAAAKQDVKVFSEDGTSKVVEILADMTARDLCQLLVYKSHSVDDNSWTLVEHHPHLGLERCLEDHELVVQVESTMASESKFLFRKNYAKYEFFKNPMNFFPEQMVTWSQQSNGSQTQLLQNFLNSSSSPEIQGFLHVKELGKKSWKKLYVCLRRSGLYCSTKGTSAAPRHLQLLADLEDSNIFSLIAGRKQYNAPTDHGLCIKPNKVRNETKELRLLCAEDEQTRTSWMTAFRLLKYGMLLYQNYRIPQQRKA | soluble
6 | IKDFSYGARFNLSDQKDKLVDYGVEYNGFVAGVNQKVQGYSLGSIFGYRTDGYFTSEEEVKNSAAFNKAITGVGDIKYIDKDGDGKISAPNDLEYLGTTTPRYTFGLNLTAAWKGFDLGVLLQGVGKRNFYLSSEVMNPYYATWNNFSYKMHNDYWTPENPNAAFPRYYAGANHNYQISDHWLQNAAYVRLKNLQLGYTISPKLTKSWGIQRLRVYFSGDNLCEYSKLNDNFDPELSDINGYVYPIMRNFSFGINVTL | not soluble
7 | MAILGLGTDIVEISRIQAVVERTGERLARRILSPSEWQHYQQHQQPVRFLAKRFAVKEAAAKAFGTGIRNGLAFNQFEVVNDALGKPTLRLHSRAAELAVELGVKSLHVTLADERRYACATVIIES | not soluble
8 | SIEFSTAITRQIVLDTETTGMNQIGAHYEGHKIIEIGAVEVVNRRLTGNNFHVYLKPDRLVDPEAFGVHGIADEFLLDKPTFAEVADEFMDYIRGAELVIHNAAFDIGFMDYEFSLLKRDIPKTNTFCKVTDSLAVARKMFPGKRNSLDALCARYEIDNSKRTLHGALLDAQILAEVYLAMTGGQTSMATRESG | soluble
9 | MKELIRKLTEAFGPSGREEEVRSIILEELEGHIDGHRIDGLGNLIVWKGSGEKKVILDAHIDEIGVVVTNVDDKGFLTIEPVGGVSPYMLLGKRIRFENGTIGVVGMEGETTEERQENVRKLSFDKLFIDIGANSREEAQKMCPIGSFGVYDSGFVEVSGKYVSKAMDDRIGCAVIVEVFKRIKPAVTLYGVFSVQEEVGLVGASVAGYGVPADEAIAIDVTDSADTPKAIKRHAMRLSGGPALKVKDRASISSKRILENLIEIAEKFDIKYQMEVLTFGGTNAMGYQRTREGIPSATVSIPTRYVHSPSEMIAPDDVEATVDLLIRYLGA | not soluble
